The experiment concerns the target T1, MBP-COP1 (Arabidopsis, UniProt P43254 1-675).
T1 sequence (looked up): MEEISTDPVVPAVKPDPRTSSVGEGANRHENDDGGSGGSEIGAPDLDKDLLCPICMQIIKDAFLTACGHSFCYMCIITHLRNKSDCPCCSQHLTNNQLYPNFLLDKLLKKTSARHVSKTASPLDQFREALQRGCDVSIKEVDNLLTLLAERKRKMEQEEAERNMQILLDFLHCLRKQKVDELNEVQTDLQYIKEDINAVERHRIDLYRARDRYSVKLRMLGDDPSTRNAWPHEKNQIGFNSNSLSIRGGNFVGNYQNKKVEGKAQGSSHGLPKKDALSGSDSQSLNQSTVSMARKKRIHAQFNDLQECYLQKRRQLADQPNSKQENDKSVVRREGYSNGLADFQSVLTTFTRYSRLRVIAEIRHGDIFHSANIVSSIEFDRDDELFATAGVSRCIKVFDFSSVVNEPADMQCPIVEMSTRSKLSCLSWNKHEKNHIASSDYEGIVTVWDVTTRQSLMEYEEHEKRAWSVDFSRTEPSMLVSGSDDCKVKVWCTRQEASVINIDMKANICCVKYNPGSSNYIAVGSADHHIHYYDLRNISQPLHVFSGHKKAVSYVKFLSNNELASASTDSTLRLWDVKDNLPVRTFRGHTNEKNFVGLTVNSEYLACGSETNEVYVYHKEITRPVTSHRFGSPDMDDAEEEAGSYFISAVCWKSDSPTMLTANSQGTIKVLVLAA
Description: pull-down.

B1: GST-WDL3 (natural protein)
chain: not shown
As to B1, the binding result was “binds”.

The values are drawn from paper PMC5699047 (Proceedings of the National Academy of Sciences of the …, 2017).
